Results published in article PMC2580787 (The EMBO journal, 2008).

T1: Sec24d (lacking residues 1-266) (human, UniProt O94855 267-1032)
T1 sequence (looked up): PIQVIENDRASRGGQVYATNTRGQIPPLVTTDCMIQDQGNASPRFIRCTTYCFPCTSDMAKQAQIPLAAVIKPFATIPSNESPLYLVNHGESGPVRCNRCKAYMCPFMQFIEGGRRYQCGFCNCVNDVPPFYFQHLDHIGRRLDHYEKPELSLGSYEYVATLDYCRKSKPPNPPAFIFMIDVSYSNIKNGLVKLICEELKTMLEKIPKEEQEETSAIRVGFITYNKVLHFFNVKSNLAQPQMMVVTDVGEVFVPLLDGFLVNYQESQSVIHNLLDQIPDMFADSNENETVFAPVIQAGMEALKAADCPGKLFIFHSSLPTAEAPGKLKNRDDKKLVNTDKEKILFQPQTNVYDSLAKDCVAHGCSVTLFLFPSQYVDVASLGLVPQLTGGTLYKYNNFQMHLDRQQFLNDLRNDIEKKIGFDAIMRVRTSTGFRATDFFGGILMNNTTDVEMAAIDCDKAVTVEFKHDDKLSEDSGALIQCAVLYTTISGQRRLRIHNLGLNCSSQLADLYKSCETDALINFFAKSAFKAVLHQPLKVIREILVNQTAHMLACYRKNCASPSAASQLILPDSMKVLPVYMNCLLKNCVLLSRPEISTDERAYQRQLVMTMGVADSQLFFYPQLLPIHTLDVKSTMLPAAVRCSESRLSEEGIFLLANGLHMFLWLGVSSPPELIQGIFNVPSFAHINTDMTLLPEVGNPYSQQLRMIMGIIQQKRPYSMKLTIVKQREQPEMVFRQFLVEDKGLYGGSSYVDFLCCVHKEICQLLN


Molecular target: T1, Sec24d (lacking residues 1-266)

Binder	binding result
DVAIDMMDP [syntaxin 5 peptide 188DVAIDMMDP196]	binds
TTIPMDE [membrin peptide 116TTIPMDE122]	binds
